Test results taken from the supplement of paper PMC5998384.

Tests used:
[1] = system: HeLa Kyoto; experiment: solubility in G1/S (NP-40 vs SDS abundance) (log2 ratio); higher = more soluble; conditions: cell cycle stage: G1/S
[2] = system: HeLa Kyoto; experiment: thermal stability score vs G1/S (z-score of summed log2 fold changes over temperatures); higher = more thermally stable than in G1/S
[3] = system: HeLa Kyoto; experiment: solubility change mitosis vs G1/S (difference of NP-40 vs SDS log2 ratios) (log2 ratio difference); higher = more soluble in mitosis
[4] = system: HeLa Kyoto; experiment: melting temperature (median over replicates), in situ; higher = more thermally stable
[5] = cell cycle stage: early G1 (4.5 h after nocodazole release)
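Throughout, for melting temperature (median over replicates), in situ: HeLa Kyoto cells synchronized by double thymidine or nocodazole block, proteins quantified by TMT10plex mass spectrometry, three independent biological replicates.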
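Throughout, for solubility change mitosis vs G1/S (difference of NP-40 vs SDS log2 ratios): synchronized HeLa Kyoto cells (double thymidine block for G1/S, nocodazole release for mitosis), protein amounts in NP-40 versus SDS lysates quantified by mass spectrometry, three biological replicates.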
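Throughout, for solubility in G1/S (NP-40 vs SDS abundance): HeLa Kyoto cells arrested at G1/S by double thymidine block, proteins quantified by TMT10plex mass spectrometry in mild NP-40 versus SDS extracts, three biological replicates.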
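Throughout, for thermal stability score vs G1/S (z-score of summed log2 fold changes over temperatures): synchronized HeLa Kyoto cells, proteins quantified by TMT10plex mass spectrometry, three biological replicates, mitosis taken 0.5 h after nocodazole release, G1/S directly after double thymidine block.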

Sequence: MSSESSKKRKPKVIRSDGAPAEGKRNRSDTEQEGKYYSEEAEVDLRDPGRDYELYKYTCQELQRLMAEIQDLKSRGGKDVAIEIEERRIQSCVHFMTLKKLNRLAHIRLKKGRDQTHEAKQKVDAYHLQLQNLLYEVMHLQKEITKCLEFKSKHEEIDLVSLEEFYKEAPPDISKAEVTMGDPHQQTLARLDWELEQRKRLAEKYRECLSNKEKILKEIEVKKEYLSSLQPRLNSIMQASLPVQEYLFMPFDQAHKQYETARHLPPPLYVLFVQATAYGQACDKTLSVAIEGSVDEAKALFKPPEDSQDDESDSDAEEEQTTKRRRPTLGVQLDDKRKEMLKRHPLSVMLDLKCKDDSVLHLTFYYLMNLNIMTVKAKVTTAMELITPISAGDLLSPDSVLSCLYPGDHGKKTPNPANQYQFDKVGILTLSDYVLELGHPYLWVQKLGGLHFPKEQPQQTVIADHSLSASHMETTMKLLKTRVQSRLALHKQFASLEHGIVPVTSDCQYLFPAKVVSRLVKWVTVAHEDYMELHFTKDIVDAGLAGDTNLYYMALIERGTAKLQAAVVLNPGYSSIPPVFQLCLNWKGEKTNSNDDNIRAMEGEVNVCYKELCGPWPSHQLLTNQLQRLCVLLDVYLETESHDDSVEGPKEFPQEKMCLRLFRGPSRMKPFKYNHPQGFFSHR [THOC5]
- solubility in G1/S (log2) [1]: -0.323
- thermal stability score [2, 5]: 0.533
- thermal stability score ([2]; cell cycle stage: mitosis): 0.546
- solubility change mitosis (log2) [3]: 0.281
- melting temperature ([4]; cell cycle stage: G1/S): 51.4 °C
- melting temperature ([4]; cell cycle stage: mitosis): 50.4 °C

Sequence: MSSFGAGKTKEVIFSVEDGSVKMFLRGRPVPMMIPDELAPTYSLDTRSELPSCRLKLEWVYGYRGRDCRANLYLLPTGEIVYFVASVAVLYSVEEQRQRHYLGHNDDIKCLAIHPDMVTIATGQVAGTTKEGKPLPPHVRIWDSVSLSTLHVLGLGVFDRAVCCVGFSKSNGGNLLCAVDESNDHMLSVWDWAKETKVVDVKCSNEAVLVATFHPTDPTVLITCGKSHIYFWTLEGGSLSKRQGLFEKHEKPKYVLCVTFLEGGDVVTGDSGGNLYVWGKGGNRITQAVLGAHDGGVFGLCALRDGTLVSGGGRDRRVVLWGSDYSKLQEVEVPEDFGPVRTVAEGHGDTLYVGTTRNSILQGSVHTGFSLLVQGHVEELWGLATHPSRAQFVTCGQDKLVHLWSSDSHQPLWSRIIEDPARSAGFHPSGSVLAVGTVTGRWLLLDTETHDLVAIHTDGNEQISVVSFSPDGAYLAVGSHDNLVYVYTVDQGGRKVSRLGKCSGHSSFITHLDWAQDSSCFVTNSGDYEILYWDPATCKQITSADAVRNMEWATATCVLGFGVFGIWSEGADGTDINAVARSHDGKLLASADDFGKVHLFSYPCCQPRALSHKYGGHSSHVTNVAFLWDDSMALTTGGKDTSVLQWRVV [EML2]
- solubility in G1/S (log2) [1]: -0.16
- thermal stability score [2, 5]: -0.964
- thermal stability score ([2]; cell cycle stage: mitosis): -1.37
- solubility change mitosis (log2) [3]: -0.207
- melting temperature ([4]; cell cycle stage: G1/S): 53.1 °C
- melting temperature ([4]; cell cycle stage: mitosis): 53.4 °C

Sequence: MSSGAASGTGRGRPRGGGPGPGDPPPSETHKLVVVGGGGVGKSALTIQFIQSYFVSDYDPTIEDSYTKICSVDGIPARLDILDTAGQEEFGAMREQYMRAGHGFLLVFAINDRQSFNEVGKLFTQILRVKDRDDFPVVLVGNKADLESQRQVPRSEASAFGASHHVAYFEASAKLRLNVDEAFEQLVRAVRKYQEQELPPSPPSAPRKKGGGCPCVLL [RRAS]
- solubility in G1/S (log2) [1]: 0.28
- thermal stability score [2, 5]: 0.904
- thermal stability score ([2]; cell cycle stage: mitosis): -0.296
- solubility change mitosis (log2) [3]: -0.0644
- melting temperature ([4]; cell cycle stage: G1/S): 56.1 °C
- melting temperature ([4]; cell cycle stage: mitosis): 56 °C

Sequence: MSSILPFTPPVVKRLLGWKKSAGGSGGAGGGEQNGQEEKWCEKAVKSLVKKLKKTGRLDELEKAITTQNCNTKCVTIPSTCSEIWGLSTPNTIDQWDTTGLYSFSEQTRSLDGRLQVSHRKGLPHVIYCRLWRWPDLHSHHELKAIENCEYAFNLKKDEVCVNPYHYQRVETPVLPPVLVPRHTEILTELPPLDDYTHSIPENTNFPAGIEPQSNYIPETPPPGYISEDGETSDQQLNQSMDTGSPAELSPTTLSPVNHSLDLQPVTYSEPAFWCSIAYYELNQRVGETFHASQPSLTVDGFTDPSNSERFCLGLLSNVNRNATVEMTRRHIGRGVRLYYIGGEVFAECLSDSAIFVQSPNCNQRYGWHPATVCKIPPGCNLKIFNNQEFAALLAQSVNQGFEAVYQLTRMCTIRMSFVKGWGAEYRRQTVTSTPCWIELHLNGPLQWLDKVLTQMGSPSVRCSSMS [SMAD2]
- solubility in G1/S (log2) [1]: -0.0287
- thermal stability score [2, 5]: 0.527
- thermal stability score ([2]; cell cycle stage: mitosis): 1.37
- solubility change mitosis (log2) [3]: -0.177
- melting temperature ([4]; cell cycle stage: G1/S): 50.5 °C
- melting temperature ([4]; cell cycle stage: mitosis): 49.9 °C

Sequence: MSSKKNRKRLNQSAENGSSLPSAASSCAEARAPSAGSDFAATSGTLTVTNLLEKVDDKIPKTFQNSLIHLGLNTMKSANICIGRPVLLTSLNGKQEVYTAWPMAGFPGGKVGLSEMAQKNVGVRPGDAIQVQPLVGAVLQAEEMDVALSDKDMEINEEELTGCILRKLDGKIVLPGNFLYCTFYGRPYKLQVLRVKGADGMILGGPQSDSDTDAQRMAFEQSSMETSSLELSLQLSQLDLEDTQIPTSRSTPYKPIDDRITNKASDVLLDVTQSPGDGSGLMLEEVTGLKCNFESAREGNEQLTEEERLLKFSIGAKCNTDTFYFISSTTRVNFTEIDKNSKEQDNQFKVTYDMIGGLSSQLKAIREIIELPLKQPELFKSYGIPAPRGVLLYGPPGTGKTMIARAVANEVGAYVSVINGPEIISKFYGETEAKLRQIFAEATLRHPSIIFIDELDALCPKREGAQNEVEKRVVASLLTLMDGIGSEVSEGQVLVLGATNRPHALDAALRRPGRFDKEIEIGVPNAQDRLDILQKLLRRVPHLLTEAELLQLANSAHGYVGADLKVLCNEAGLCALRRILKKQPNLPDVKVAGLVKITLKDFLQAMNDIRPSAMREIAIDVPNVSWSDIGGLESIKLKLEQAVEWPLKHPESFIRMGIQPPKGVLLYGPPGCSKTMIAKALANESGLNFLAIKGPELMNKYVGESERAVRETFRKARAVAPSIIFFDELDALAVERGSSLGAGNVADRVLAQLLTEMDGIEQLKDVTILAATNRPDRIDKALMRPGRIDRIIYVPLPDAATRREIFKLQFHSMPVSNEVDLDELILQTDAYSGAEIVAVCREAALLALEEDIQANLIMKRHFTQALSTVTPRIPESLRRFYEDYQEKSGLHTL [SPATA5]
- solubility in G1/S (log2) [1]: -0.296
- thermal stability score [2, 5]: 1.78
- thermal stability score ([2]; cell cycle stage: mitosis): -0.413
- solubility change mitosis (log2) [3]: 0.184
- melting temperature ([4]; cell cycle stage: G1/S): 53 °C
- melting temperature ([4]; cell cycle stage: mitosis): 51.7 °C
